According to patent publication US20190127480A1 (Regeneron, published 2019):

target: T1, Soluble heterodimeric CD3 protein (hCD3-epsilon/hCD3-delta) with either a human Fc tag (hFcΔAdp/hFc) or a … (human, UniProt P07766 23-126; P04234 22-105); assay: SPR Biacore 25C antibody-capture, 1-arm
T1 construct: also called hCD3ε/δ; not shown: Fc tag: human (hFcΔAdp/hFc)
Description: Soluble heterodimeric CD3 protein (hCD3-epsilon/hCD3-delta; SEQ ID NOs:1652/1653) with either a human Fc tag (hFcΔAdp/hFc; SEQ ID NOs:1683/1684) or a mouse Fc tag (mFcΔAdp/mFc; SEQ ID NOs:1685/1686) was injected over the antibody captured surface and the binding response was recorded. Heterodimeric CD3 protein was purified using the method described in Davis et al. (US2010/0331527).
(§1) Kinetic association (kₐ) and dissociation (kd) rate constants were determined by processing and fitting the data to a 1:1 binding model using Scrubber 2.0 curve fitting software. Binding dissociation equilibrium constants (KD) and dissociative half-lives (t₁₁₂) were calculated from the kinetic rate constants as: KD (M)=kd/kₐ; and t_{1/2} (min)=(ln 2/(60*kd). NT=not tested; NB=no binding observed.

T1 sequence (P07766 23-126 limits assumed, stated change not applied, chain 1 of 2): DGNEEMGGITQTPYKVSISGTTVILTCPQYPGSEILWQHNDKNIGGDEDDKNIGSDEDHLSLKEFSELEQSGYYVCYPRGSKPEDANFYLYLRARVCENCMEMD
T1 sequence (P04234 22-105 limits assumed, stated change not applied, chain 2 of 2): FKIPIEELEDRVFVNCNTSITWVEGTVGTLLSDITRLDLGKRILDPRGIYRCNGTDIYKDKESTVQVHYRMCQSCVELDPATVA

Row | Kd | T½ | koff | kon | Binder
1 | 24 nM | 38 min | 0.000302 s⁻¹ | 12600 M⁻¹ s⁻¹ | H1H7258P (monovalent 1-arm) (antibody, human IgG1, V domains shown, Monovalent 1-arm: second Fab removed, only the Fc portion (CH2-CH3) expressed; human IgG1 Fc; tied by numerical identifier; also called H1H7258B) VH: QVQLVESGGGLVQPGRSLRLSCAASGFTFDDYTMHWVRQGPGKGLEWVSDIGWNSNTIGYADSVKGRFTISRDNARNSLYLQMNSLRPEDTALYYCVKDKSGYGKFQYGLDVWGQGTTVTVSS VL: not shown
2 | 243 nM | 2 min | 0.00624 s⁻¹ | 25700 M⁻¹ s⁻¹ | H1H7269P (monovalent 1-arm) (antibody, human IgG1, V domains shown, Monovalent 1-arm: second Fab removed, only the Fc portion (CH2-CH3) expressed; human IgG1 Fc; tied by numerical identifier; also called H1H7269B) VH: QVQLVESGGGLVQPGRSLRLSCAASGFKFDDYTMHWVRQGPGKGLEWVSDISWSGGSIDYTDSVKGRFSISRDNAKNSLYLQMNSLRVEDTALYYCVKDKSGYGKYSYGLDVWGQGTTVTVSS VL: not shown

target: T1, Soluble heterodimeric CD3 protein …; assay: SPR Biacore 25C antigen-capture, 1-arm
Description: In the antigen-capture format, heterodimeric CD3 protein was captured using a rabbit anti-mouse Fc or mouse anti-human Fc and the respective antibodies were injected over the captured antigen.
as §1

Row | Kd | T½ | koff | kon | Binder
3 | 2.18 nM | 40 min | 0.00029 s⁻¹ | 133000 M⁻¹ s⁻¹ | H1H7258P (monovalent 1-arm) (antibody, human IgG1, V domains shown, Monovalent 1-arm: second Fab removed, only the Fc portion (CH2-CH3) expressed; human IgG1 Fc; tied by numerical identifier; also called H1H7258B) VH: QVQLVESGGGLVQPGRSLRLSCAASGFTFDDYTMHWVRQGPGKGLEWVSDIGWNSNTIGYADSVKGRFTISRDNARNSLYLQMNSLRPEDTALYYCVKDKSGYGKFQYGLDVWGQGTTVTVSS VL: not shown
4 | 24.9 nM | 2 min | 0.00689 s⁻¹ | 277000 M⁻¹ s⁻¹ | H1H7269P (monovalent 1-arm) (antibody, human IgG1, V domains shown, Monovalent 1-arm: second Fab removed, only the Fc portion (CH2-CH3) expressed; human IgG1 Fc; tied by numerical identifier; also called H1H7269B) VH: QVQLVESGGGLVQPGRSLRLSCAASGFKFDDYTMHWVRQGPGKGLEWVSDISWSGGSIDYTDSVKGRFSISRDNAKNSLYLQMNSLRVEDTALYYCVKDKSGYGKYSYGLDVWGQGTTVTVSS VL: not shown

target: T2, human PSMA expressed with an N-terminal hexahistidine tag (6h.hPSMA, R&D) (human, UniProt Q04609 44-750); assay: SPR Biacore T-200, 37 C, antibody-capture (anti-human Fc), 6h.hPSMA as analyte
T2 construct: Bought soluble protein; also called soluble human PSMA; human PSMA protein
Description: In this example, anti-PSMA antibodies were assessed for their ability to bind to human PSMA. […] Measurements were conducted on a Biacore™ T-200 instrument (GE Healthcare).
Briefly, a CM5 Biacore™ sensor surface was derivatized via amine coupling with a monoclonal mouse anti-human Fc antibody (GE, # BR-1008-39) or monoclonal goat anti-mouse Fc antibody (GE, # BR-1008-38) to capture purified anti-PSMA antibodies. Binding studies were performed in HBSP++ buffer composed of 0.01M HEPES, 0.15M NaCl, 2 mM Ca²⁺, 2 mM Mg²⁺, 0.05% v/v Surfactant P20, pH7.4. Varying concentrations of human PSMA expressed with an N-terminal hexahistidine tag (6h.hPSMA, R&D) prepared in HBSP++ running buffer (ranging from 50 to 0.78 nM, 4-fold dilutions) were injected over the anti-PSMA antibody captured surface at a flow rate of 30 μL/minute. Antibody-reagent association was monitored for 2 minutes while dissociation in HBSP++ running buffer was monitored for 8 minutes.
as §1, with “by” for “by processing and”, “real-time sensorgrams” for “data”, “2.0c” for “2.0”, “(t½)” for “(t₁₁₂)”, “2/(60*kd).” for “2/(60*kd). NT=not tested; NB=no binding observed.”

T2 sequence (Q04609 other isoform, or with tags, fused parts or gaps limits assumed): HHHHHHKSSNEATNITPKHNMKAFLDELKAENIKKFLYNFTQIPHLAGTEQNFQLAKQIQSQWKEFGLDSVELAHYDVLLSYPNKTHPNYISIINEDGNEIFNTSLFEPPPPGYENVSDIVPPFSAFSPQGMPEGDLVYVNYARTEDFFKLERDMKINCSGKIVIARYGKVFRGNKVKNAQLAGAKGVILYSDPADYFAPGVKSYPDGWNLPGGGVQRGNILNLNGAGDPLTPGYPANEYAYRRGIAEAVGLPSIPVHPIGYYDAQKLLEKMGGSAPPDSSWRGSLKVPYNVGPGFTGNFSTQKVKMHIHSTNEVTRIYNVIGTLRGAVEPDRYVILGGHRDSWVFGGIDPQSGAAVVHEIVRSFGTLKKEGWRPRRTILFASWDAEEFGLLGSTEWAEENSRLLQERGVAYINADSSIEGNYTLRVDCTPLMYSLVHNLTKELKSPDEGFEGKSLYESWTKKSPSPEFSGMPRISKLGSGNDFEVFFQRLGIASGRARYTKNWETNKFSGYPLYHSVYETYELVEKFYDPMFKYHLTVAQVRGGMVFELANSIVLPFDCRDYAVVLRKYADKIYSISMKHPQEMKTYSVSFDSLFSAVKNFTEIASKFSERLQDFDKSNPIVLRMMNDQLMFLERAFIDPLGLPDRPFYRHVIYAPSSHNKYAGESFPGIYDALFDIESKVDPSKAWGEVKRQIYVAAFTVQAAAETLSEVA

Row | Kd | koff | kon | t1/2 | Binder
5 | ≤ 0.0563 nM | ≤ 1e-05 s⁻¹ | 178000 M⁻¹ s⁻¹ | ≥ 1160 min | H1H11808P2 (antibody, human IgG1, V domains shown, human IgG1) VH: QVQLVESGGGVVQPGRSLRLSCAASGFPFNSYGMHWVRQAPGKGLEWVAVISYDGSNRYYADSVKGRFTISRDNSKYTLDLHVSSLTTDDTAVYYCARDRRYGKWEQLYPDYLGQGTLVTVSS VL: DIQMTQSPSSLSASVGDSVTITCRASQSINNYLNWYQQKPGKAPKLLIYTASSLLSGVPSRFSGSGSGTDFTLTISGLHPEDFATYFCQQSFSTPPITFGQGTRLDIK
6 | 14 nM | 0.00246 s⁻¹ | 175000 M⁻¹ s⁻¹ | 4.7 min | H1H11835P2 (antibody, human IgG1, V domains shown, human IgG1) VH: EVQLVESGGGLVQSGGSLRLSCEASGFTFSNYWMTWIRQGPGKGLEWVANIKPDGTENYYVDSVKGRFTISRDNARNSLYLQMTSLKAEDTAVYYCGRMIQFVINIWGQGTLVTVSS VL: DIQMTQSPSSLSASVGDSVTITCRASQSINNYLNWYQQKPGKAPKLLIYTASSLLSGVPSRFSGSGSGTDFTLTISGLHPEDFATYFCQQSFSTPPITFGQGTRLDIK
7 | 39.4 nM | 0.000801 s⁻¹ | 20300 M⁻¹ s⁻¹ | 14.4 min | H1H11804P2 (antibody, human IgG1, V domains shown, human IgG1) VH: QVQLVESGGGVVQPGRSLRLSCAASGFTFISYGMHWVRQAPGKGLEWVAVISYDGSNKYYADSVKGRFTISRDNSKNTLFLQMNSLRAEDTAVYYCAKNYDFWNGYVGYYGMDVWGQGTTVTVSS VL: DIQMTQSPSSLSASVGDSVTITCRASQSINNYLNWYQQKPGKAPKLLIYTASSLLSGVPSRFSGSGSGTDFTLTISGLHPEDFATYFCQQSFSTPPITFGQGTRLDIK
8 | ≤ 0.0199 nM | ≤ 1e-05 s⁻¹ | 503000 M⁻¹ s⁻¹ | ≥ 1160 min | H1H11810P2 (antibody, human IgG1, V domains shown, human IgG1; also called PSMA-VH-11810 (its HCVR)) VH: QVQLVESGGGVVQPGRSLRLSCAASGFTFSSYGMHWVRQAPGKGLEWVAVISYAGNNKYYADSVKGRFTVSRDNSKKTLYLQMNSLRSEDTAVYYCAKDSYYDFLTDPDVLDIWGQGTMVTVSS VL: DIQMTQSPSSLSASVGDSVTITCRASQSINNYLNWYQQKPGKAPKLLIYTASSLLSGVPSRFSGSGSGTDFTLTISGLHPEDFATYFCQQSFSTPPITFGQGTRLDIK
9 | 1.33 nM | 0.000608 s⁻¹ | 457000 M⁻¹ s⁻¹ | 19 min | H1H11803P2 (antibody, human IgG1, V domains shown, human IgG1) VH: QVQLVESGGGVVQPGRSLRLSCAASGFTFSSYGMHWVRQAPGKGLEWVAVIWYDGNNKYYADSVKGRFTISRDNSKKTLYLQMTSLRAEDTAVYYCARDQYYDILTADNTLDYWGQGTLVTVSS VL: DIQMTQSPSSLSASVGDSVTITCRASQSINNYLNWYQQKPGKAPKLLIYTASSLLSGVPSRFSGSGSGTDFTLTISGLHPEDFATYFCQQSFSTPPITFGQGTRLDIK

The next lines start with the binder.

Row | Binder | Kd | koff | kon | t1/2
10 | H1H3465P (antibody, human IgG1, V domains shown, human IgG1; also called PSMA-VH-3465 (its HCVR)) VH: QVQLVESGGGVVQPGRSLRLSCAASGFTFITYGMHWVRQAPGKGLEWVAIIYYDESNKYYADSVKGRFTISRDISKNTLYLQMNGLRAEDTAVYYCARAPRVAVEEDYSYYYGMDVWGQGTTVTVSS VL: DIQMTQSPSSLSASVGDRVTITCRASQGIRNDLGWYQQKPGRAPKRLIYGASNLQSGVPSRFSGSGSGTEFTLTISSLQPEDFATYYCLQHNSHPYTFGQGTKLEIK | 0.227 nM | 6.06e-05 s⁻¹ | 267000 M⁻¹ s⁻¹ | 191 min
11 | H1H11797P2 (antibody, human IgG1, V domains shown, human IgG1) VH: QVQLVESGGGVVQPGRSLRLSCAASGFSFSGYGMHWVRQAPGKGLEWVAVTWYDGSNKYYADSVKGRFTISRDNSKNTLYLQMNSLRAEDTAVYYCARDGNWGGPYWYFDLWGRGTLVTVSS VL: DIQMTQSPSSLSASVGDSVTITCRASQSINNYLNWYQQKPGKAPKLLIYTASSLLSGVPSRFSGSGSGTDFTLTISGLHPEDFATYFCQQSFSTPPITFGQGTRLDIK | 3.74 nM | 0.00063 s⁻¹ | 168000 M⁻¹ s⁻¹ | 18.3 min
12 | H1H11838P2 (antibody, human IgG1, V domains shown, human IgG1) VH: QVQLVESGGGVVQPGRSLRLSCAASGFTFSSYGMHWVRQAPGKGLEWVAFMSYDGSNKFYSDSVKGRFTISRDNSRKMLFLQMNNLRAEDTAVYYCARDQYYDFLTDHGVFDYWGQGTLVTVSS VL: DIQMTQSPSSLSASVGDSVTITCRASQSINNYLNWYQQKPGKAPKLLIYTASSLLSGVPSRFSGSGSGTDFTLTISGLHPEDFATYFCQQSFSTPPITFGQGTRLDIK | 1.99 nM | 0.000471 s⁻¹ | 237000 M⁻¹ s⁻¹ | 24.5 min
13 | H1H11805P2 (antibody, human IgG1, V domains shown, human IgG1) VH: EVQLVESGGGLVQPGGSLRLSCVVSGFTFNNYWMSWVRQAPGKGLEWVANIKKDGSEKYYVDSVKGRFTISRDNAKNSLYLQMNSLRAEDTAVYYCARDIMATIIDWGQGTLVTVSS VL: DIQMTQSPSSLSASVGDSVTITCRASQSINNYLNWYQQKPGKAPKLLIYTASSLLSGVPSRFSGSGSGTDFTLTISGLHPEDFATYFCQQSFSTPPITFGQGTRLDIK | 75.6 nM | 0.00974 s⁻¹ | 129000 M⁻¹ s⁻¹ | 1.2 min
14 | H1H11800P2 (antibody, human IgG1, V domains shown, human IgG1) VH: QVQLVESGGGVVQPGRSLRLSCAASGFTFSSYGMHWVRQAPGKGLEWVAVISYAGNNKYYVDSVKGRFTISRDNSKNTLYLQMNSLRAEDTAVYYCAKDPYYDFLTGSDYFDYWGQGTLVTVSS VL: DIQMTQSPSSLSASVGDSVTITCRASQSINNYLNWYQQKPGKAPKLLIYTASSLLSGVPSRFSGSGSGTDFTLTISGLHPEDFATYFCQQSFSTPPITFGQGTRLDIK | 0.163 nM | 4.1e-05 s⁻¹ | 251000 M⁻¹ s⁻¹ | 282 min
15 | H1H11792P2 (antibody, human IgG1, V domains shown, human IgG1) VH: QVQLVESGGGVVQPGRSLRLSCAASGFTFSSYGMHWVRQPPGKGLEWVAIMSYDGSNKYYADSVKGRFTISRDNSKNTLYLQMNSLRVEDTAVYYCAKDQYYDFLTFDYTLDYWGQGTLVTVSS VL: DIQMTQSPSSLSASVGDSVTITCRASQSINNYLNWYQQKPGKAPKLLIYTASSLLSGVPSRFSGSGSGTDFTLTISGLHPEDFATYFCQQSFSTPPITFGQGTRLDIK | 0.205 nM | 9.7e-05 s⁻¹ | 473000 M⁻¹ s⁻¹ | 119 min
16 | H1H11837P2 (antibody, human IgG1, V domains shown, human IgG1) VH: QVQLVESGGGVVQPGRSLRLSCAASGFTFSSYGMHWVRQAPGKGLEWVTFISYDGNNKYYSDSVKGRFAISRDNSKNTLYLQMNSLRAEDTSVYFCAKDQYYDFLTDFGVFDYWGQGTLVTVSS VL: DIQMTQSPSSLSASVGDSVTITCRASQSINNYLNWYQQKPGKAPKLLIYTASSLLSGVPSRFSGSGSGTDFTLTISGLHPEDFATYFCQQSFSTPPITFGQGTRLDIK | 1.66 nM | 0.000734 s⁻¹ | 441000 M⁻¹ s⁻¹ | 15.7 min
17 | H1H11836P2 (antibody, human IgG1, V domains shown, human IgG1) VH: QVQLVESGGGVVQPGRSLRLSCAASGFTFRSYGMHWVRQAPGKGLEWVAFISYDESNKHQADSVKGRFTISRDNSKNTLYLQMNSLRAEDTAVYFCAKDQYYDFLTAYDTLDYWGQGTLVTVSS VL: DIQMTQSPSSLSASVGDSVTITCRASQSINNYLNWYQQKPGKAPKLLIYTASSLLSGVPSRFSGSGSGTDFTLTISGLHPEDFATYFCQQSFSTPPITFGQGTRLDIK | 0.855 nM | 0.00028 s⁻¹ | 327000 M⁻¹ s⁻¹ | 41.3 min
